Laboratory results from patent US6090929.

Assays:
[1] = molecular target: recombinant fragment of RIIα (RII 1-45); test: SPR (IAsys), gravin 1526-1780 coupled to the cuvette, RIIα 1-45 at 25 to 150 nM

B1: gravin fragment residues 1526-1780 (protein)
chain: VAIEDLEPENGILELETKSSKLVQNIIQTAVDQFVRTEETATEMLTSELQTQAHVIKADSQDAGQETEKEGEEPQASAQDETPITSAKEESESTAVGQAHSDISKDMSEASEKTMTVEVEGSTVNDQQLEEVVLPSEEEGGGAGTKSVPEDDGHALLAERIEKSLVEPKEDEKGDDVDDPENQNSALADTDASGGLTKESPDTNGPKQKEKEDAQEVELQEGKVHSESDKAITPQAQEELQKQERESAKSELTES
Kd [1]: 100 nM | kon [1]: 160000 M⁻¹ s⁻¹

B2: gravin fragment residues 265-556 (protein)
chain: KEEGEEKQEKEPSKSAESPTSPVTSETGSTFKKFFTQGWAGWRKKTSFRKPKEDEVEASEKKKEQEPEKVDTEEDGKAEVASEKLTASEQAHPQEPAESAHEPRLSAEYEKVELPSEEQVSGSQGPSEEKPAPLATEVFDEKIEVHQEEVVAEVHVSTVEERTEEQKTEVEETAGSVPAEELVGMDAEPQEAEPAKELVKLKETCVSGEDPTQGADLSPDEKVLSKPPEGVVSEVEMLSSQERMKVQGSPLKKLFTSTGLKKLSGKKQKGKRGGGDEESGEHTQVPADSPDS
IC50 of inhibition of PKC activity toward peptide substrate … (PKC βII): 500 nM
